Assay [1] concerns the target T1, recombinant human IL-18 (human, UniProt Q14116 37-193). As to the kind of experiment: cell-based or functional assay.
The target in assay [2] is T2, recombinant rat IL-18 (rat, UniProt P97636 37-194).
T2 construct: Bought
T2 sequence (looked up): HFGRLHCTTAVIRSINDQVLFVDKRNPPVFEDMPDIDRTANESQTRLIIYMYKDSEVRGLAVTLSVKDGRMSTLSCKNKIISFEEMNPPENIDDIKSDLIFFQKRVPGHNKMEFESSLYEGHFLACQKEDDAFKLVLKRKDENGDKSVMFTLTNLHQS
The assay can be described thus: SPR (BIAcore 2000), IgG amine-coupled to CM3 chip.

The target of assay [3] is T3, human IL-1beta (human, UniProt P01584 117-269).
T3 construct: Bought; also called Human IL-1β
The assay can be described thus: SPR (BIAcore 2000), IgG amine-coupled to CM3 chip. (In general: Surface plasmon resonance follows binding to a sensor surface in real time, without labels.)

Assay [4] concerns the target T4, human IL-1F7/FIL1zeta (human, UniProt Q9NZH6-2 27-192, limits assumed).
T4 construct: Bought
T4 sequence (looked up): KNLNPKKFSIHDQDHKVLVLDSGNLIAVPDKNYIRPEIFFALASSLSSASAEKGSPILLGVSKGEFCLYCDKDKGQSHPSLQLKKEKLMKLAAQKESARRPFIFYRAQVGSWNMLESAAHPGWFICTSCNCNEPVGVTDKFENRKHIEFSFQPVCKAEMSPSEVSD
As to the kind of experiment: SPR (BIAcore 2000), IgG amine-coupled to CM3 chip.

The target in assay [5] is T1, recombinant human IL-18. The assay can be described thus: SPR (BIAcore 2000), IgG amine-coupled to CM3 chip, IL-18 as analyte, 1:1 Langmuir.
For assay [6], the target named is T1, recombinant human IL-18. The assay can be described thus: HTRF receptor-ligand competition: human IL-18 with Eu-cryptate IL-18Rα and biotinylated IL-18Rβ.
Assay [7] deals with T5, recombinant Rhesus Macaque IL-18 (Rhesus Macaque, UniProt Q9BGI5 37-193).
T5 construct: Bought; also called Rhesus m; IL-18
The assay can be described thus: HTRF receptor-ligand competition: Rhesus Macaque IL-18 (1.5 nM) with Eu-cryptate human IL-18Rα and biotinylated human IL-18Rβ. On the technique in general: TR-FRET usually uses a lanthanide donor and a delayed reading to cut background.

Assay [8] addresses T1, recombinant human IL-18. The assay can be described thus: cell-based or functional assay. This is another data set of the same source.
Assay [9] has as its target T5, recombinant Rhesus Macaque IL-18. The assay can be described thus: cell-based or functional assay.
For assay [10], the target named is T1, recombinant human IL-18. The assay can be described thus: cell-based or functional assay. The source holds these as a separate data set.
Assay [11] has as its target T2, recombinant rat IL-18. As to the kind of experiment: SPR, IgG amine-coupled to CM5 chip.
The target in assay [12] is T6, mouse IL-18 (mouse, UniProt P70380 36-192).
T6 sequence (looked up): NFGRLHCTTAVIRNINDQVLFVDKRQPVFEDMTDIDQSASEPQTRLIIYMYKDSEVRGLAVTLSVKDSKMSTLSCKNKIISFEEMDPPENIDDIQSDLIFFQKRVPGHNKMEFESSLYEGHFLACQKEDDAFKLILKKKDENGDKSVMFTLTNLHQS
As to the kind of experiment: SPR, IgG amine-coupled to CM5 chip.

Assay [13] has as its target T3, human IL-1beta. As to the kind of experiment: SPR, IgG amine-coupled to CM5 chip.
Assay [14] concerns the target T4, human IL-1F7/FIL1zeta. As to the kind of experiment: SPR, IgG amine-coupled to CM5 chip.
Assay [15] deals with T7, human IL-18-FH (baculovirus-produced IL-18 containing FLAG and His tags) (human, UniProt Q14116 37-193).
T7 construct: not shown: N-terminal Flag tag and histidine tag
The assay can be described thus: HTRF competition of IL-18BPa-Fc binding to FLAG/His-tagged human IL-18.

Assay [16] addresses T1, recombinant human IL-18. As to the kind of experiment: SPR (BIAcore), IgG amine-coupled to CM3 or CM5 chip, IL-18 as analyte, 1:1 Langmuir.
Assay [17] addresses T5, recombinant Rhesus Macaque IL-18. Described as above.

Numbering of substitutions follows the chain as printed.

Data on two molecules can be found in patent publication US20140004128A1 (AstraZeneca / MedImmune, published 2014).

B1: Antibody 1 IgG2 (antibody, V domains shown)
VH: QVQLQQSGPRLVKPSQTLSLTCTVSGGSISSGGYYWSWIRQPAGKGLEWIGSIYYSGSTYYNPSLKSRVTISGDTPKNQFSLKLSSVTAADTAVYYCARTPAYDGDARADFFDVWGRGTLVTVSS
VL: DIVMTQSPSTLSASVGDRVTITCRASQGISSWLAWYQQKPGRAPKVLIYKASTLESGVPSRFSGSGSGTDFTLTISSLQPEDFATYYCQQSYSTPWTFGQGTKLEIK
notes: Whole human IgG2 heavy chain and human kappa light chain (vectors pEU9.2 and pEU3.4)
What is called Kd is the free concentration of one partner at which half of the binding sites on the other are occupied at equilibrium, for simple one-to-one binding. In general, koff refers to the first-order rate constant of dissociation. Usually kon stands for the second-order rate constant of association. What is called IC50 is the midpoint of a concentration-inhibition curve. Take B1: the “IC50, inhibition of IFNγ release by KG-1 cells stimulated with human IL-18 and TNFα” value in assay [1] stood at 258 nM. The binding result in [2], in assay [3] and in assay [4] was “no binding (tested: 200 nM)” each time. Further, the Kd in [5] worked out at 9.96 nM. Besides, in assay [5], the koff came to 0.00732 s⁻¹. The kon in assay [5] was 735000 M⁻¹ s⁻¹. The IC50 is 2.9 nM in assay [6] and 5.4 nM in assay [7].

B2: Antibody 12 GL IgG2 (antibody, V domains shown)
VH: QVQLQESGPGLVKPSETLSLTCTVSGGSISADGYYWSWIRQPPGKGLEWIGSLYYSGSTYYNPSLKGRVTISGDTSKNQFSLKLSSVTAADTAVYYCARTPAYFGQDRTDFFDVWGRGTLVTVSS
VL: B1 VL with V3Q, R42K, D70E, E81D, Y92H, S93H, T94P
notes: Germlined; whole human IgG2, kappa light chain
For the molecule B2, the “IC50, IFNγ release KG-1 cell assay, human IL-18” value in assay [8] came out at 0.202 nM. Moreover, the “IC50, IFNγ release KG-1 cell assay, Rhesus Macaque IL-18” value in [9] was 0.285 nM. Also, the “IC50, IFNγ release by human PBMC stimulated with LPS and IL-12 (endogenous IL-18)” value in assay [10] was found to be 0.32 nM. For the same molecule, the binding result in assay [11], in assay [12], in assay [13] and in [14] was “no binding” in each case. The molecule further returned an IC50 in [15] of 0.2 nM. The Kd was found to be 0.092 nM in assay [16] and 0.046 nM in assay [17]. In addition, the koff in [16] amounted to 8.16e-05 s⁻¹; in assay [17] it was 4.79e-05 s⁻¹. Also, the kon in assay [16] is 885000 M⁻¹ s⁻¹; in [17] it was 1.05e+06 M⁻¹ s⁻¹.
